{"source": "patent US20220265759A1", "about": "“COMPOSITION AND METHOD FOR PROMOTING WOUND HEALING” (THE BOARD OF TRUSTEES OF THE UNIVERSITY OF ILLIOIS, priority 2019, published 2022)", "molecules": {"B1": {"name": "CCL28: human recombinant CCL28, the ligand for CCR10 (protein)", "chain": "ILPIASSCCTEVSHHISRRLLERVNMCRIQRADGDCDLAAVILHVKRRRICVSPHNHTVKQWMKVQAAKKNGKGNVCHRKKHHGKRNSNRAHQGKHETYGHKTPY"}}, "key": {"[1]": {"tested_on": "eNOS, p85 (PI3K), Src kinase, ERK (MAPK), β-catenin, Bcl-2", "test": "Immunoblot of CCL28 signaling in endothelial cells", "assay_type": "cell-based, human", "description": "Immunoblot and Co-Immunoprecipitation (Co-IP). After serum starvation, inhibitors were added 45 minutes prior to stimulation for indicated times at 37° C., and cells were then collected and lysed for western blot analysis. After probing for p-eNOS (Ser1177), p-p85 (Tyr458), p-Src (Tyr 416), and p-ERK (T202/Y204), the same blots were stripped and re-probed for total proteins mentioned above. For detection of CCL28-induced protein levels of β-catenin and Bcl-2, near-confluent endothelial cells were incubated with 500 ng/ml CCL28 for 24 hours in EGM-2 medium containing 1% FBS.\n(§1) NO production was also observed in HUVECs following treatment with 500 ng/ml human recombinant CCL28, the ligand for CCR10. The signaling pathways activated by CCL28 binding to CCR10 in endothelial cells were further investigated.\nThe role of CCL28/CCR10 signaling pathways was further investigated in angiogenesis. Pretreatment of cells with 10 μM wortmannin (PI3K inhibitor), 5 μM U0126 (MAPK/ERK inhibitor), 1 mM L-NAME (eNOS inhibitor), 10 μM PP2 (Src kinase inhibitor), and 10 μM STO-609 ([…]) reduced endothelial cell tube formation induced by 500 ng/ml CCL28. […]"}, "CCR10-eNOS interaction": {"target": "T1, CCR10-eNOS interaction (Homo sapiens, UniProt P46092)", "T1 construct": "host or cells: HUVEC (primary human umbilical vein endothelial cells)", "T1 sequence (P46092 1-362)": "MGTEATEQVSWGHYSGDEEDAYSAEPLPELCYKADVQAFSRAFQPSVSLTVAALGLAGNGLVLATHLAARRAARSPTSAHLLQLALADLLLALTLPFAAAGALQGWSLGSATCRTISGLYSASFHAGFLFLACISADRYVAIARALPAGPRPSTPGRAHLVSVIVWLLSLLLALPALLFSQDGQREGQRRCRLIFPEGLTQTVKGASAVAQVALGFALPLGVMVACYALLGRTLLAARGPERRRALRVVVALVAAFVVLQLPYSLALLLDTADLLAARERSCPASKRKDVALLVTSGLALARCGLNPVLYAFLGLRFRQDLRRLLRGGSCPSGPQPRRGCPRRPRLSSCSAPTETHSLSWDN", "test": "Ligand-induced CCR10-eNOS interaction in HUVEC (Co-IP, confocal co-localization)", "assay_type": "cell-based", "conditions": "plasma membrane ROI, stimulation for 5 minutes; untreated control cells 43%", "description": "(§2) Co-IP Experiments, cells or mouse wounds were collected after treatment, and lysed in 2% ODG in Tris buffer. The homogenates were further prepared for Co-IP experiments as described in the art (Chen, et al. (2018) Mol. Biol. Cell 29(10):1190-1202; Chen, et al. (2020) FASEB J. 34(4):5838-5850; Chen, et al. (2015) Ann. Rheum. Dis. 74:1898-1906).\nConfocal Microscopy. For cellular immunostaining, confluent monolayers of cells grown on coverslips were prepared as described previously (Chen, et al. (2012) Mel. Biol. Cell 23(7):1388-1398). Fluorescent images were obtained using a Zeiss LSM 880 confocal microscope. The co-localization coefficient in specified regions of interest (ROI) were determined using Zeiss Zen software. Briefly, using the Overlay tool, the desired ROI was drawn along the cell edge and the values for the ROIs tabulated. […] The data from different treatment groups were collected and analyzed for statistical significance as described previously (Chen, et al. (2020) FASEB J. 34(4):5838-5850).\nTo investigate whether CCR10 interacts directly with eNOS, primary culture HUVEC were collected and prepared for co-immunoprecipitation (Co-IP) to assess CCR10-eNOS interaction following stimulation with 5 μM A23187. […] Co-localization coefficient in the regions of interest (ROI) in the plasma membrane were quantified from Zeiss LSM 880 confocal microscope images using Zeiss Zen software."}, "eNOS-CCR10 interaction": {"target": "T2, eNOS-CCR10 interaction (Homo sapiens, UniProt P46092)", "T2 construct": "host or cells: HDMVEC (human dermal microvascular endothelial cells)", "T2 sequence (P46092 1-362)": "T1 sequence (P46092 1-362)", "T2 sequence (P29474 2-1203 partner limits assumed)": "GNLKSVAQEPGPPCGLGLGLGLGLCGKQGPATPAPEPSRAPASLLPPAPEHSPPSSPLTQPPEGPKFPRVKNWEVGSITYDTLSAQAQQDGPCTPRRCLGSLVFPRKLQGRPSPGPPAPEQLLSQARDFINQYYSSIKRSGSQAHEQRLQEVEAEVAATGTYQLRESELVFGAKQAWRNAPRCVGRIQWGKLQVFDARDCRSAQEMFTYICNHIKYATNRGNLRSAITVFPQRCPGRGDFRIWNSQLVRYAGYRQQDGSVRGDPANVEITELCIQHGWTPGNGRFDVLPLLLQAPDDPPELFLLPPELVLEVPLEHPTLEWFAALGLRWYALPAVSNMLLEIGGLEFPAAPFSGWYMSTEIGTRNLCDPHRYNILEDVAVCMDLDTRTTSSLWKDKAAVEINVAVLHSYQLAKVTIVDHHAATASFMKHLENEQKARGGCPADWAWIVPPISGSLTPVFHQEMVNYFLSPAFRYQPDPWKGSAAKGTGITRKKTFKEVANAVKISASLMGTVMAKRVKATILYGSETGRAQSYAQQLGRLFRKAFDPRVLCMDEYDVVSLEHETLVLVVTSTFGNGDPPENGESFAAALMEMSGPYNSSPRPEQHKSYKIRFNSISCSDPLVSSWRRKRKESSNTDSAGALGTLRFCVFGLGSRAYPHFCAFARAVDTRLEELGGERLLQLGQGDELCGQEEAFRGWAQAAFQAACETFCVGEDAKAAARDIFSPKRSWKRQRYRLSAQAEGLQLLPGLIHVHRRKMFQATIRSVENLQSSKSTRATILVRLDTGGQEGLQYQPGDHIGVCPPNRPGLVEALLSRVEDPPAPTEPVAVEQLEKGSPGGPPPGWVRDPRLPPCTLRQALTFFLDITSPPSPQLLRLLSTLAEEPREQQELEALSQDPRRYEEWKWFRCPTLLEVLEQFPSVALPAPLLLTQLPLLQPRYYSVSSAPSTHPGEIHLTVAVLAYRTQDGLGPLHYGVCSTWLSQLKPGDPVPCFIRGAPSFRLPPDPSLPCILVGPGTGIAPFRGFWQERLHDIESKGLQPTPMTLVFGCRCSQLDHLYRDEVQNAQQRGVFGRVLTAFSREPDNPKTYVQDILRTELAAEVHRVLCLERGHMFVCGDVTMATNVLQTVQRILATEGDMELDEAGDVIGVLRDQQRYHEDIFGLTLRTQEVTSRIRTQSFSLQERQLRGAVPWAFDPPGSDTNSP", "test": "CCL28-induced eNOS-CCR10 interaction in HDMVECs", "assay_type": "cell-based", "conditions": "500 ng/ml", "excerpt": "as §2\nIt has been shown that CCR10 is highly expressed in human umbilical vein endothelial cells (HUVECs) and human endothelial progenitor cells (EPCs) (Chen, et al. (2020) FASEB J. 34(4):5838-5850). In order to understand whether the CCL28/CCR10 signaling axis in dermal microvessels plays a role in wound healing, 500 ng/ml CCL28 was administrated to human dermal microvascular endothelial cells (HDMVECs). eNOS-CCR10 interaction increased with maximum binding observed at 5 minutes, similar to that observed in HUVEC (Chen, et al. (2020) FASEB J. 34(4):5838-5850). […] Upon stimulation with CCL28 for 5 minutes, CCR10 co-localized to a greater extent with eNOS on the plasma membrane."}, "HUVECs": {"tested_on": "HUVECs", "test": "NO production in HUVECs", "assay_type": "cell-based, human", "conditions": "500 ng/ml", "description": "Nitric Oxide (NO) Measurement with DAF-FM Diacetate. Confluent HUVEC monolayers on 96-well plates were loaded with 2.5 μM DAF-FM and incubated for 45 minutes at 37° C. NO concentration was measured using a SpectraMax Microplate Reader (Molecular Devices, San Jose, Calif.) as described in the art (Chen, et al. (2020) FASEB J. 34(4):5838-5850).\nas §1"}, "[2]": {"tested_on": "eNOS and CCR10 interaction with LAMP1", "test": "eNOS internalization and degradation in HDMVECs stimulated with CCL28 (Co-IP with LAMP1, confocal microscopy)", "assay_type": "cell-based, human", "conditions": "HDMVECs", "description": "as §2\nConfocal Microscopy. For cellular immunostaining, confluent monolayers of cells grown on coverslips were prepared as described previously (Chen, et al. (2012) Mel. Biol. Cell 23(7):1388-1398). Fluorescent images were obtained using a Zeiss LSM 880 confocal microscope. The co-localization coefficient in specified regions of interest (ROI) were determined using Zeiss Zen software. Briefly, using the Overlay tool, the desired ROI was drawn along the cell edge and the values for the ROIs tabulated. The scatterplot and table were automatically adjusted to the pixel distribution for the selected ROI. The data from different treatment groups were collected and analyzed for statistical significance as described previously (Chen, et al. (2020) FASEB J. 34(4):5838-5850). […]\nSince myristoylated 7 amino acid CCR10-binding domain (Myr-CBD7) peptide can block eNOS interaction with CCR10 and increase eNOS activity in HUVECs, it was assessed whether Myr-CBD7 can prevent eNOS internalization and degradation in HDMVECs following CCL28 stimulation. […]"}}, "data": [{"molecule": "B1", "values": [{"measurement": "expression levels of β-catenin and Bcl-2", "setting": "[1]; stimulation of endothelial cells for 24 hours", "value": "enhanced"}, {"measurement": "Phosphorylation of eNOS (Ser1177), p85 (Tyr458; PI3K), Src kinase (Tyr418), and ERK (T202/Y204; MAPK)", "setting": "[1]; treatment for up to 60 minutes", "value": "significantly increased"}, {"measurement": "Co-localization coefficient of CCR10 and eNOS", "setting": "CCR10-eNOS interaction", "value": 78, "unit": "%"}, {"measurement": "eNOS-CCR10 interaction", "setting": "eNOS-CCR10 interaction", "value": "increased"}, {"measurement": "time of maximum eNOS-CCR10 binding", "setting": "eNOS-CCR10 interaction", "value": 5, "unit": "min"}, {"measurement": "NO production", "setting": "HUVECs", "value": "observed"}, {"measurement": "eNOS co-localization with EEA1", "setting": "[2]; 500 ng/ml for 90 minutes, preliminary analyses", "value": "more co-localization"}, {"measurement": "eNOS and CCR10 association with LAMP1 (co-IP)", "setting": "[2]; 3 hours treatment", "value": "associated with LAMP1"}]}]}
